Assay results: the supplement of paper PMC9732359
± gives the uncertainty stated by the source.

Experiment: protein stability index of a GFP-peptide fusion (yeast GPS) (PSI 1-4); higher = more stable; sorted into four equal gates, so the index is relative within each strain
Summary of the method: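 Tiled yeast protein peptides of 17 residues were each joined downstream of GFP, on plasmids that also express Cherry. The pooled library was maintained in yeast, and mid-log cultures in leucine-free medium were sorted into four equal gates on the GFP/Cherry ratio. Plasmids from every gate were amplified by PCR and sequenced on Illumina, with barcodes linking reads to strains. The protein stability index of a peptide is its gate-number-weighted read frequency summed over the gates.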

| Sequence | protein stability index (doa10∆) | protein stability index (pdr5∆) | protein stability index (san1∆) | protein stability index (ubr1∆) |
| --- | --- | --- | --- | --- |
| FHIACSVGNLEVVKSLY [NAS6] | 2.08 ± 0.078 | 2.39 ± 0.068 | 2.45 ± 0.056 | 2.67 ± 0.065 |
| PAAESKIFTPNLLQISA [SNF5] | 1.72 ± 0.12 | 2.04 ± 0.11 | 2.09 ± 0.14 | 1.55 ± 0.099 |
| NNNQKIDDNYIVVVIEI [SRB8] | 3.16 ± 0.078 | 3.01 ± 0.065 | 3.29 ± 0.083 | 3.11 ± 0.1 |
| KELENNLERLRSDLQSK [YIL149C/MLP2] | 3.17 ± 0.062 | 3.3 ± 0.094 | 3.05 ± 0.068 | 3.2 ± 0.053 |
| DLFGDSNKSNSTNESNK [SSN2] | 3.2 ± 0.078 | 3.3 ± 0.08 | 3.07 ± 0.064 | 3.29 ± 0.058 |
| SNVFGSNNSTTNTFGSN [YJL041W/NSP1] | 3.08 ± 0.063 | 3.44 ± 0.076 | 3.22 ± 0.043 | 3.47 ± 0.054 |
| SMKDRAQHAVILDQEKY [RPS25A] | 1.55 ± 0.094 | 2 ± 0.13 | 2.42 ± 0.14 | 2.23 ± 0.081 |
| NLEPLIAKLVAVLNVSP [NUT1] | 1.47 ± 0.064 | 1.38 ± 0.066 | 1.69 ± 0.14 | 1.43 ± 0.057 |
| RKIKRLEKFLQGRDTSK [SRP72] | 2.79 ± 0.1 | 2.16 ± 0.059 | 2.14 ± 0.12 | 2.76 ± 0.048 |
| SMENTPKVPVSAAATPS [GAL11] | 2.07 ± 0.045 | 2.19 ± 0.049 | 2.24 ± 0.065 | 1.78 ± 0.036 |
| DWQKEDGIFSSKTDNIE [YMR153W/NUP53] |  |  | 3.22 ± 0.15 | 2.86 ± 0.2 |
| LTHPKYLNSRIIPTTLE [YML103C/NUP188] | 2.1 ± 0.035 | 2.26 ± 0.041 | 2.05 ± 0.049 | 2.25 ± 0.036 |
| RSTKDMIDAVFEQDSHL [SNF6] | 3.12 ± 0.068 | 3.34 ± 0.054 | 3.27 ± 0.053 | 3.14 ± 0.058 |
| KEKIKNNRQLPYLVANV [RPT5] | 2.78 ± 0.1 | 3.1 ± 0.095 | 3.11 ± 0.096 | 2.64 ± 0.081 |
| RLGSEADAKAFLDSMAQ [FAS2] | 3.38 ± 0.091 | 3.44 ± 0.081 | 3.21 ± 0.062 | 3.33 ± 0.11 |
| TELRQLFQENDDDDDDD [DSN1] | 2.03 ± 0.063 | 2.36 ± 0.071 | 2.24 ± 0.11 | 2.38 ± 0.092 |
| RENALYDYYALQLLPLQ [SNF2] | 2.63 ± 0.078 | 2.74 ± 0.045 | 2.72 ± 0.056 | 2.77 ± 0.042 |
| NLRTQVTQQKRSLDENR [SMC1] | 3.24 ± 0.12 | 3.09 ± 0.066 | 2.91 ± 0.092 | 3.07 ± 0.086 |
| AYIKLLDQTKDTRITHL [SNF2] | 2.65 ± 0.085 | 3.03 ± 0.072 | 2.78 ± 0.06 | 2.39 ± 0.062 |
| IGEFNVSMYQNSSTSST [YDL088C/ASM4] | 3.61 ± 0.28 | 1.97 ± 0.13 |  | 2.17 ± 0.098 |
| DDGDDEDLLECLDRCKE [MTR3] | 2.57 ± 0.097 | 3.08 ± 0.084 | 2.87 ± 0.085 | 2.77 ± 0.11 |
| KVSGVSLLALWKEKKEK [RPS23A] | 2.55 ± 0.22 | 1.59 ± 0.1 | 1.78 ± 0.1 | 1.77 ± 0.11 |
| IDYSNSQIRLYAKFKRN [RGR1] | 3.1 ± 0.093 | 2.46 ± 0.1 | 2.45 ± 0.091 | 2.8 ± 0.057 |
| SLINSHLKILASSNFPF [RPC82] | 2.64 ± 0.066 | 2.3 ± 0.075 | 2.28 ± 0.073 | 2.02 ± 0.042 |
| RLQQQQAQAQAQANNNN [GAL11] | 2.03 ± 0.093 | 2.55 ± 0.078 | 2.74 ± 0.076 | 2.04 ± 0.06 |
| IPSLQNNIEENLRLLNS [ECM29] | 3.13 ± 0.065 | 3.17 ± 0.061 | 3.34 ± 0.055 | 3.25 ± 0.061 |
| LYVPRKCSATNRIIKAD [RPS21A] | 3.08 ± 0.27 | 1.83 ± 0.2 | 2.13 ± 0.12 | 2.19 ± 0.15 |

| Sequence | protein stability index (doa10∆) | protein stability index (pdr5∆) | protein stability index (san1∆) | protein stability index (ubr1∆) |
| --- | --- | --- | --- | --- |
| RRFKNGFQTGSAKATSA [RPL37B] | 3.02 ± 0.066 | 3.08 ± 0.079 | 3.39 ± 0.09 | 3.18 ± 0.06 |
| VLQYSDWESDLHIHLNQ [YDL116W/NUP84] | 2.48 ± 0.073 | 2.61 ± 0.065 | 2.75 ± 0.066 | 3.04 ± 0.081 |
| KELESIDVLLEQTTGGN [RPB4] |  |  |  | 3.22 ± 0.26 |
| FMEIVLEYNVALNDVYL [YML031W/NDC1] | 2.47 ± 0.09 | 2.3 ± 0.084 | 2.22 ± 0.11 | 1.66 ± 0.064 |
| KFDSRIRGILMASGSTT [PRP8] | 2.44 ± 0.084 | 2.18 ± 0.11 | 2.06 ± 0.12 | 2.19 ± 0.13 |
| TEFSKNDLEVGVATKDK [SCL1] | 2.95 ± 0.079 | 3.03 ± 0.068 | 2.63 ± 0.088 | 2.71 ± 0.075 |
| LISDSNINNSSVAEKEE [SWI3] | 1.6 ± 0.14 | 1.73 ± 0.13 | 1.56 ± 0.12 | 1.55 ± 0.11 |
| SFLDPLNYGNICEPKET [YJL039C/NUP192] | 3.33 ± 0.12 | 2.81 ± 0.085 | 3.01 ± 0.095 | 2.66 ± 0.093 |
| EQGIELEHIDSKSEFAH [FAS2] | 2.88 ± 0.096 | 2.15 ± 0.12 | 3.08 ± 0.13 | 2.15 ± 0.16 |
| LTSVTNDICSVENYETS [SIR4] | 2.18 ± 0.052 | 2.35 ± 0.057 | 1.88 ± 0.062 | 1.84 ± 0.059 |
| SDRREHDEKLSDELHNQ [LIN1] |  | 2.56 ± 0.18 | 3.19 ± 0.16 | 2.89 ± 0.16 |
| NWRSFNAKIIDAEVAQF [SRP68] | 2.53 ± 0.071 | 2.56 ± 0.048 | 2.01 ± 0.073 | 2.43 ± 0.098 |
| TVIPEDEEIIQLHFSLL [RPO21] | 2.64 ± 0.06 | 2.98 ± 0.067 | 2.98 ± 0.057 | 2.56 ± 0.086 |
| NELERNRKIYQFTLYDR [SMC3] | 1.5 ± 0.23 | 2.45 ± 0.1 | 2.31 ± 0.14 | 2.88 ± 0.1 |
| TPGEVASKAIVQMAKIL [MCD1] | 3.26 ± 0.14 | 3 ± 0.11 |  |  |
| DKTAVKLDTEVKNTNAN [SWP82] | 2.5 ± 0.077 | 2.83 ± 0.076 | 2.88 ± 0.099 | 1.96 ± 0.056 |
| ENLEESFLSKHALYLAP [SSN2] | 3.12 ± 0.056 | 3.31 ± 0.065 | 3.26 ± 0.044 | 3.28 ± 0.05 |
| RLQFAQGSVRRLTVSAR [QCR2] | 1.33 ± 0.075 | 1.39 ± 0.13 | 1.77 ± 0.27 | 1.14 ± 0.073 |
| SLEQRTLNPDLFLYKEL [RPC82] | 3.28 ± 0.28 | 3.13 ± 0.19 | 3.21 ± 0.092 | 3.74 ± 0.27 |
| PSTAIHTSPHQPSDVKP [SIR4] | 2.81 ± 0.052 | 2.95 ± 0.049 | 2.76 ± 0.046 | 2.36 ± 0.034 |
| ELKEITSLPDWCQEAFP [BRR2] | 2.86 ± 0.069 | 2.73 ± 0.076 | 3.11 ± 0.064 | 3.08 ± 0.046 |
| AASWYGSFNEMKRNCGQ [RMP1] | 2.92 ± 0.051 | 3.3 ± 0.054 | 3.06 ± 0.052 | 3.21 ± 0.045 |
| NKQYELFMKSLIENCKK [SWI1] | 2.58 ± 0.053 | 2.85 ± 0.061 | 2.77 ± 0.046 | 2.66 ± 0.036 |
| SSRFIKGGSLYGLGLIY [RPN2] | 2.07 ± 0.09 | 2.1 ± 0.088 | 2.38 ± 0.061 | 1.99 ± 0.06 |
| FVNGVATSFSRKKARTF [FAS2] | 1.85 ± 0.12 | 1.76 ± 0.11 | 1.22 ± 0.23 | 1.14 ± 0.074 |
| KFFQKKIHLYEKKLEDY [YGL172W/NUP49] | 2.83 ± 0.093 | 2.75 ± 0.089 | 2.71 ± 0.071 | 2.94 ± 0.089 |
